# Legend:
# [1] = molecular target: WT/WT nucleosome (Xenopus laevis histone octamer with intact acidic patches on Widom 601 DNA) (Xenopus laevis); experiment: cryo-EM structure; biotinylated ALC1 linker peptide at 10-fold molar excess over core nucleosomes (no linker DNA), cross-linked with 0.05% glutaraldehyde, purified on monomeric avidin; 15 mM HEPES pH 7.5, 50 mM NaCl, 1 mM DTT
# [2] = tested on: T1, ALC1RLS peptide-TAMRA (Homo sapiens); experiment: fluorescence anisotropy; settings: Fluorescence anisotropy: 15 mM HEPES pH 7.5, 1 mM EDTA, 5% glycerol, 1 mM DTT, 10 nM peptide, 30 C
# T1 sequence: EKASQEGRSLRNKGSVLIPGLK
# [3] = molecular target: ALC1^RLS peptide-TAMRA (human); experiment: fluorescence polarisation; fluorescence anisotropy; 10 nM TAMRA-labelled peptide, nucleosomes without linker DNA titrated; 30°C; 15 mM HEPES pH 7.5, 1 mM EDTA, 5% glycerol, 1 mM DTT; quadratic fit
# [4] = molecular target: WT/WT nucleosome (Xenopus laevis histone octamer with intact acidic patches on Widom 601 DNA) (Xenopus laevis)
# [5] = molecular target: WT/WT nucleosome (Xenopus laevis histone octamer with intact acidic patches on Widom 601 DNA) (Xenopus laevis); remark: listed apart in the source
substance,measurement,setting,value
ALC1 linker peptide-Biotin,stoichiometry N (peptides per nucleosome),[1],2
WT/WT nucleosome 0-601-0,Kd,[2],1100 nM
WT/WT nucleosome (Xenopus laevis histone octamer with intact acidic patches on Widom 601 DNA) (complex),Kd,[3],1100 nM
ALC1^fl R611A/S612A/R860W (human ALC1 16-879) (from UniProt Q86WJ1 16-879) (enzyme),Michaelis constant of remodeling of WT/WT nucleosomes (10 nM); factor of increase against ALC1^fl R860W,[4],5.3 fold
same,maximum rate of remodeling of WT/WT nucleosomes (10 nM); factor of decrease against ALC1^fl R860W,[4],6.4 fold
same,nucleosome-stimulated ATPase rate under saturating conditions (Vmax estimated); fold reduction against ALC1^fl R860W,[4],2 fold
same,"nucleosome-stimulated ATPase rate, 20 μM remodeler, 2 μM WT/WT nucleosomes; fold reduction against ALC1^fl R860W",[4],2.5 fold
same,"smFRET, average translocation pause duration on WT/WT nucleosomes with 3 bp of linker DNA; fold increase against ALC1^fl R860W",[5],> 4 fold
